Measurements published in article doi:10.1101/467431.

Molecular target: Sca2 full-length passenger domain, construct Sca_(34-1515) (Rickettsia conorii) (UniProt Q92JF7)
Test: ITC

## monomeric actin (LatB-actin) (from UniProt P68135 1-377) (natural protein)
  KD1 (two-site binding model): 0.19 µM
  KD2 (two-site binding model): 0.02 µM
  N of the single site model (called unrealistic): 0.6
  stoichiometry N (actin subunits per Sca (34-1515)): 2
